# Measured values as given in paper doi:10.1101/2020.06.11.147496.
# Key:
# [1] = molecular target: LuS-N71-SpyTag (Aquifex aeolicus lumazine synthase nanoparticle with a glycan at N71 and SpyTag at the N-terminus) (Aquifex aeolicus)
# [2] = molecular target: ferritin-N96-SpyTag (Helicobacter pylori ferritin nanoparticle with a glycan at N96 and SpyTag) (Helicobacter pylori)
substance,measurement,setting,value
RSV F-SpyCatcher (respiratory syncytial virus prefusion F 'DS2' trimer with SpyCatcher at the C-terminus),percent of nanoparticle subunits conjugated,[1],67%
same,percent of nanoparticle subunits conjugated,[2],85%
